Test results reported in patent publication US20240228660A1 (IP2IPO INNOVATIONS, published 2024).
Like-named read-outs stand apart in the source and are kept apart here.

Columns and labels:
human full-length VWF [1] = molecular target: T1, human full-length VWF (human, UniProt P04275 764-2813); assay: SPR Biacore T200, antibody captured on Protein A chip, full-length VWF as analyte, single-cycle kinetics
Description: (§1) Antibodies were captured on Protein A sensor chip. The system was purged using running buffer (10 mM HEPES pH 7.4, 300 mM NaCl, 3 mM EDTA, 0.05% P20) and a series S Protein A chip was docked in the Biacore T200. The surface was conditioned with 10 mM glycine-HCl pH 1.5 regeneration solution (3 injections). Each antibody was diluted to ˜0.8 μg/ml in running buffer to capture ˜350 RU on flow cells 2, 3 and 4 (flow cell 1 used as in-line reference cell). Single-cycle kinetic analysis of human full-length VWF binding to antibodies was performed using the following parameters:

human full-length VWF [2] = molecular target: T1, human full-length VWF; assay: SPR, Biacore T200, antibody captured on Protein A, full-length VWF as analyte, single-cycle kinetics
Description: as §1

human full-length VWF [3] = molecular target: T1, human full-length VWF; assay: as above; remark: listed apart in the source
Description: as §1

Row | Binder | Kd (human full-length VWF [1]) [nM] | Kd (human full-length VWF [2]) [pM] | koff (human full-length VWF [2]) [s⁻¹] | kon (human full-length VWF [2]) [M⁻¹ s⁻¹] | Kd (human full-length VWF [3]) [pM] | koff (human full-length VWF [3]) [s⁻¹] | kon (human full-length VWF [3]) [M⁻¹ s⁻¹]
1 | 1-D5_H2_L1 (antibody, human IgG1, kappa, V domains shown, humanised, human IgG1 kappa) VH: QQQLVESGGGVVQPGRSLRLSCAASGFSLNNYIMGWVRQAPGKGLEYIGIISTGGSTYYASWAKGRFTISRDSNTMYLQMNSLRAEDTATYFCARGGSSAGAGFNIWGQGTLVTVSS VL: DIQMTQSPSSLSASVGDRVTITCQASQSINSGLAWYQQKPGKAPKRLIYKASTLASGVPSRFSGSGSGTDFTLTISSLQPEDFATYYCQSYHYISANGATFGGGTKVEIKT | < 1 | 38 | 1.13e-05 | 298000 |  |  | 
2 | 1-D5_H1_L1 (antibody, human IgG1, kappa, V domains shown, humanised, human IgG1 kappa) VH: QVQLVESGGGVVQPGRSLRLSCAASGFSLNNYIMGWVRQAPGKGLEWVAIISTGGSTYYASWAKGRFTISRDNSKNTLYLQMNSLRAEDTAVYYCARGGSSAGAGFNIWGQGTLVTVSS VL: DIQMTQSPSSLSASVGDRVTITCQASQSINSGLAWYQQKPGKAPKRLIYKASTLASGVPSRFSGSGSGTDFTLTISSLQPEDFATYYCQSYHYISANGATFGGGTKVEIKT | < 1 | 0.0946 | 6.72e-09 | 71000 |  |  | 
3 | 4-H3_H2_L1 (antibody, human IgG1, kappa, humanised, human IgG1 kappa) heavy: not shown light: DYQMTQSPSSLSASVGDRVTITCLASEDIASGISWYQQKPGKAPKLLIYGASNLESGVPSRFSGSGSGTDYTLTISSLQPEDFATYYCLGGYSFSSNGLTFGGGTKVEIKTVAAPSVFIFPPSDEQLKSGTASVVCLLNNFYPREAKVQWKVDNALQSGNSQESVTEQDSKDSTYSLSSTLTLSKADYEKHKVYACEVTHQGLSSPVTKSFNRGEC | < 1 | 4.53 | 1.36e-07 | 29900 |  |  | 
4 | 4-H3_H1_L0 (antibody, human IgG1, kappa, humanised, human IgG1 kappa) heavy: not shown light: DIQMTQSPSSLSASVGDRVTITCLASEDIASGISWYQQKPGKAPKLLIYGASNLESGVPSRFSGSGSGTDFTLTISSLQPEDFATYYCLGGYSFSSNGLTFGGGTKVEIKTVAAPSVFIFPPSDEQLKSGTASVVCLLNNFYPREAKVQWKVDNALQSGNSQESVTEQDSKDSTYSLSSTLTLSKADYEKHKVYACEVTHQGLSSPVTKSFNRGEC | < 1 | 18.7 | 2.49e-06 | 134000 |  |  | 
5 | 4-H3_H5_L1 (antibody, human IgG1, kappa, humanised, human IgG1 kappa) heavy: not shown light: DYQMTQSPSSLSASVGDRVTITCLASEDIASGISWYQQKPGKAPKLLIYGASNLESGVPSRFSGSGSGTDYTLTISSLQPEDFATYYCLGGYSFSSNGLTFGGGTKVEIKTVAAPSVFIFPPSDEQLKSGTASVVCLLNNFYPREAKVQWKVDNALQSGNSQESVTEQDSKDSTYSLSSTLTLSKADYEKHKVYACEVTHQGLSSPVTKSFNRGEC | < 1 |  |  |  | 0.575 | 5.95e-08 | 103000
6 | 4-H3_H5_L0 (antibody, human IgG1, kappa, humanised, human IgG1 kappa) heavy: not shown light: DIQMTQSPSSLSASVGDRVTITCLASEDIASGISWYQQKPGKAPKLLIYGASNLESGVPSRFSGSGSGTDFTLTISSLQPEDFATYYCLGGYSFSSNGLTFGGGTKVEIKTVAAPSVFIFPPSDEQLKSGTASVVCLLNNFYPREAKVQWKVDNALQSGNSQESVTEQDSKDSTYSLSSTLTLSKADYEKHKVYACEVTHQGLSSPVTKSFNRGEC | < 1 |  |  |  | 0.366 | 4.93e-08 | 135000
7 | 4-H3_H7_L1 (antibody, human IgG1, kappa, V domains shown, humanised, human IgG1 kappa) VH: QVQLVESGGGVVQPGRSLRLSCAASGIDLTSNAMNWVRQAPGKGLEWIGGIYGHDTSYYAAWAKGRFTISRDNSKNTVYLQMNSLRAEDTATYFCARGFIYFDIWGQGTLVTVSS VL: DYQMTQSPSSLSASVGDRVTITCLASEDIASGISWYQQKPGKAPKLLIYGASNLESGVPSRFSGSGSGTDYTLTISSLQPEDFATYYCLGGYSFSSNGLTFGGGTKVEIKT | < 1 |  |  |  | 5.84 | 3.82e-07 | 65400
8 | 4-H3_H4_L1 (antibody, human IgG1, kappa, V domains shown, humanised, human IgG1 kappa) VH: QVQLVESGGGVVQPGRSLRLSCAASGIDLTSNAMNWVRQAPGKGLEWVAGIYGHDTSYYAAWAKGRFTISRDNSKNTLYLQMNSLRAEDTATYFCARGFIYFDIWGQGTLVTVSS VL: DYQMTQSPSSLSASVGDRVTITCLASEDIASGISWYQQKPGKAPKLLIYGASNLESGVPSRFSGSGSGTDYTLTISSLQPEDFATYYCLGGYSFSSNGLTFGGGTKVEIKT | < 1 | 0.14 | 6.25e-09 | 44500 |  |  | 
9 | 4-H3_H3_L1 (antibody, human IgG1, kappa, V domains shown, humanised, human IgG1 kappa) VH: QVQLVESGGGVVQPGRSLRLSCAASGIDLTSNAMNWVRQAPGKGLEWIGGIYGHDTSYYAAWAKGRFTISRDNSKNTVYLQMNSLRAEDTAVYYCARGFIYFDIWGQGTLVTVSS VL: DYQMTQSPSSLSASVGDRVTITCLASEDIASGISWYQQKPGKAPKLLIYGASNLESGVPSRFSGSGSGTDYTLTISSLQPEDFATYYCLGGYSFSSNGLTFGGGTKVEIKT | < 1 | 1.49 | 1.72e-07 | 115000 |  |  | 

Second part, the binder after the results:

Row | Kd (human full-length VWF [1]) [nM] | Kd (human full-length VWF [2]) [pM] | koff (human full-length VWF [2]) [s⁻¹] | kon (human full-length VWF [2]) [M⁻¹ s⁻¹] | Kd (human full-length VWF [3]) [pM] | koff (human full-length VWF [3]) [s⁻¹] | kon (human full-length VWF [3]) [M⁻¹ s⁻¹] | Binder
10 | < 1 | 7.66 | 1.06e-06 | 138000 |  |  |  | 1-D5_H2_L0 (antibody, human IgG1, kappa, V domains shown, humanised, human IgG1 kappa) VH: QQQLVESGGGVVQPGRSLRLSCAASGFSLNNYIMGWVRQAPGKGLEYIGIISTGGSTYYASWAKGRFTISRDSNTMYLQMNSLRAEDTATYFCARGGSSAGAGFNIWGQGTLVTVSS VL: DIQMTQSPSSLSASVGDRVTITCQASQSINSGLAWYQQKPGKAPKLLIYKASTLASGVPSRFSGSGSGTDFTLTISSLQPEDFATYYCQSYHYISANGATFGGGTKVEIKT
11 | < 1 | 0.15 | 1.13e-08 | 75200 |  |  |  | 1-D5_H0_L0 (antibody, human IgG1, kappa, V domains shown, humanised, human IgG1 kappa) VH: QVQLVESGGGVVQPGRSLRLSCAASGFTFSNYIMGWVRQAPGKGLEWVAIISTGGSTYYASWAKGRFTISRDNSKNTLYLQMNSLRAEDTAVYYCARGGSSAGAGFNIWGQGTLVTVSS VL: DIQMTQSPSSLSASVGDRVTITCQASQSINSGLAWYQQKPGKAPKLLIYKASTLASGVPSRFSGSGSGTDFTLTISSLQPEDFATYYCQSYHYISANGATFGGGTKVEIKT
12 | < 1 |  |  |  | 0.649 | 2.67e-08 | 41200 | 4-H3_H6_L0 (antibody, human IgG1, kappa, humanised, human IgG1 kappa) heavy: not shown light: DIQMTQSPSSLSASVGDRVTITCLASEDIASGISWYQQKPGKAPKLLIYGASNLESGVPSRFSGSGSGTDFTLTISSLQPEDFATYYCLGGYSFSSNGLTFGGGTKVEIKTVAAPSVFIFPPSDEQLKSGTASVVCLLNNFYPREAKVQWKVDNALQSGNSQESVTEQDSKDSTYSLSSTLTLSKADYEKHKVYACEVTHQGLSSPVTKSFNRGEC
13 | < 1 | 13.8 | 4.27e-07 | 31000 |  |  |  | 4-H3_H1_L1 (antibody, human IgG1, kappa, humanised, human IgG1 kappa) heavy: not shown light: DYQMTQSPSSLSASVGDRVTITCLASEDIASGISWYQQKPGKAPKLLIYGASNLESGVPSRFSGSGSGTDYTLTISSLQPEDFATYYCLGGYSFSSNGLTFGGGTKVEIKTVAAPSVFIFPPSDEQLKSGTASVVCLLNNFYPREAKVQWKVDNALQSGNSQESVTEQDSKDSTYSLSSTLTLSKADYEKHKVYACEVTHQGLSSPVTKSFNRGEC
14 | < 1 |  |  |  | 1.73 | 1.14e-07 | 65700 | 4-H3_H6_L1 (antibody, human IgG1, kappa, humanised, human IgG1 kappa) heavy: not shown light: DYQMTQSPSSLSASVGDRVTITCLASEDIASGISWYQQKPGKAPKLLIYGASNLESGVPSRFSGSGSGTDYTLTISSLQPEDFATYYCLGGYSFSSNGLTFGGGTKVEIKTVAAPSVFIFPPSDEQLKSGTASVVCLLNNFYPREAKVQWKVDNALQSGNSQESVTEQDSKDSTYSLSSTLTLSKADYEKHKVYACEVTHQGLSSPVTKSFNRGEC
15 | < 1 | 4.12 | 1.52e-07 | 36900 |  |  |  | 4-H3_H0_L1 rep (antibody, human IgG1, kappa, V domains shown, humanised, human IgG1 kappa) VH: QVQLVESGGGVVQPGRSLRLSCAASGFTFSSNAMNWVRQAPGKGLEWVAGIYGHDTSYYAAWAKGRFTISRDNSKNTLYLQMNSLRAEDTAVYYCARGFIYFDIWGQGTLVTVSS VL: DYQMTQSPSSLSASVGDRVTITCLASEDIASGISWYQQKPGKAPKLLIYGASNLESGVPSRFSGSGSGTDYTLTISSLQPEDFATYYCLGGYSFSSNGLTFGGGTKVEIKT
16 | < 1 |  |  |  | 1.61 | 1.73e-07 | 108000 | 4-H3_H7_L0 rep (antibody, human IgG1, kappa, V domains shown, humanised, human IgG1 kappa) VH: QVQLVESGGGVVQPGRSLRLSCAASGIDLTSNAMNWVRQAPGKGLEWIGGIYGHDTSYYAAWAKGRFTISRDNSKNTVYLQMNSLRAEDTATYFCARGFIYFDIWGQGTLVTVSS VL: DIQMTQSPSSLSASVGDRVTITCLASEDIASGISWYQQKPGKAPKLLIYGASNLESGVPSRFSGSGSGTDFTLTISSLQPEDFATYYCLGGYSFSSNGLTFGGGTKVEIKT
17 | < 1 | 1.92 | 1.45e-07 | 75600 |  |  |  | 4-H3_H3_L0 (antibody, human IgG1, kappa, V domains shown, humanised, human IgG1 kappa) VH: QVQLVESGGGVVQPGRSLRLSCAASGIDLTSNAMNWVRQAPGKGLEWIGGIYGHDTSYYAAWAKGRFTISRDNSKNTVYLQMNSLRAEDTAVYYCARGFIYFDIWGQGTLVTVSS VL: DIQMTQSPSSLSASVGDRVTITCLASEDIASGISWYQQKPGKAPKLLIYGASNLESGVPSRFSGSGSGTDFTLTISSLQPEDFATYYCLGGYSFSSNGLTFGGGTKVEIKT
18 | < 1 | 19.3 | 5.24e-07 | 27100 |  |  |  | 4-H3_H4_L0 (antibody, human IgG1, kappa, V domains shown, humanised, human IgG1 kappa) VH: QVQLVESGGGVVQPGRSLRLSCAASGIDLTSNAMNWVRQAPGKGLEWVAGIYGHDTSYYAAWAKGRFTISRDNSKNTLYLQMNSLRAEDTATYFCARGFIYFDIWGQGTLVTVSS VL: DIQMTQSPSSLSASVGDRVTITCLASEDIASGISWYQQKPGKAPKLLIYGASNLESGVPSRFSGSGSGTDFTLTISSLQPEDFATYYCLGGYSFSSNGLTFGGGTKVEIKT
19 | < 1 | 27.3 | 9.13e-07 | 33500 |  |  |  | 4-H3_H2_L0 (antibody, human IgG1, kappa, humanised, human IgG1 kappa) heavy: not shown light: DIQMTQSPSSLSASVGDRVTITCLASEDIASGISWYQQKPGKAPKLLIYGASNLESGVPSRFSGSGSGTDFTLTISSLQPEDFATYYCLGGYSFSSNGLTFGGGTKVEIKTVAAPSVFIFPPSDEQLKSGTASVVCLLNNFYPREAKVQWKVDNALQSGNSQESVTEQDSKDSTYSLSSTLTLSKADYEKHKVYACEVTHQGLSSPVTKSFNRGEC
